We go through 4 sequences from the DeepSol protein solubility set.

This series can be described thus: soluble on expression in E. coli; label from the status in PepcDB or PDB records.
With “MLILSFLCPAFLNAQIVTDERMFSFEEPQLPACITGVQSQLGISGAHYKDGKHSLEWTFEPNGRLELRKDLKFEKKDPTGKDLYLSAFIVWIYNEQPQDAAIEFEFLKDGRKCASFPFGINFKGWRAAWVCYERDMQGTPEEGMNELRIVAPDAKGRLFIDHLITATKVDARQQTADLQVPFVNAGTTNHWLVLYKHSLLKPDIELTPVSDKQRQEMKLLEKRFRDMIYTKGKVTEKEAETIRKKYDLYQITYKDGQVSGVPVFMVRASEAYERMIPDWDKDMLTKMGIEMRAYFDLMKRIAVAYNNSEAGSPIRKEMRRKFLAMYDHITDQGVAYGSCWGNIHHYGYSVRGLYPAYFLMKDVLREEGKLLEAERTLRWYAITNEVYPKPEGNGIDMDSFNTQTTGRIASILMMEDTPEKLQYLKSFSRWIDYGCRPAPGLAGSFKVDGGAFHHRNNYPAYAVGGLDGATNMIYLFSRTSLAVSELAHRTVKDVLLAMRFYCNKLNFPLSMSGRHPDGKGKLVPMHYAIMAIAGTPDGKGDFDKEMASAYLRLVSSDSSSAEQAPEYMPKVSNAQERKIAKRLVENGFRAEPDPQGNLSLGYGCVSVQRRENWSAVARGHSRYLWAAEHYLGHNLYGRYLAHGSLQILTAPPGQTVTPTTSGWQQEGFDWNRIPGVTSIHLPLDLLKANVLNVDTFSGMEEMLYSDEAFAGGLSQGKMNGNFGMKLHEHDKYNGTHRARKSFHFIDGMIVCLGSDIENTNMDYPTETTIFQLAVTDKAAHDYWKNNAGEGKVWMDHLGTGYYVPVAARFEKNFPQYSRMQDTGKETKGDWVSLIIDHGKAPKAGSYEYAILPGTDRKTMTAFAKKPAYSVLQQDRNAHILESPSDRITSYVLFETPQSLLPGGLLQRTDTSCLVMVRKESADKVLLTVAQPDLALYRGPSDEAFDKDGKRMERSIYSRPWIDNESGEIPVTVTLKGRWKVVETPYCKVVSEDKKQTVLRFLCKDGASYEVELEKLEHHHHHH”, the “soluble on expression in E. coli” value is reported as “soluble”.

As for “MGSDKIHHHHHHVMKVLLYSEGKKLFSKSGVGIALKHQMSALDKVGVKYTTNEEDSFDIVHINTIGPGAERVIKKSKKLGIPIIYHTHTTYEDFRNSFTLSNAIAPWLRKRLIKLYSSADFLISPTEYAKKLIMNYGITLPIKAVSNGVDNKKFTRSKSLAESFLSENHIRKPLVVSVGLPFERKGVIDFCQIADTRKDLTFYWFGAKISSLLPAKIRRLLKNPPDNVKFPGFIPQEMIIGPYSACDVFLFPSYEETEGIVVLEALATEAPIVLRDIPVYSEWMKHEENCLKGKDNQEFIKHIDRLLESNNLRKKLSSCGKETALERDLSIIGQKLKNIYLEVLDKKQ”, the “soluble on expression in E. coli” value is “not soluble”.

Turning to “MSLPKEEILTGPAVIKIVSTYMGPEHVELVQKALTYAEKAHEGQVRQSGEPYIIHPIQVAGILAELHMDPHTVATGFLHDVVEDTDVTLDDLKEEFGEDIAMLVDGVTKLGKIKYKSHEEQLAENHRKMLLAMAQDLRVIMVKLADRLHNMRTLKHLREDKQRRIAQETLEIYAPLAHRLGISRIKWELEDTALRYINPNQYYRIVNLMQSKRDEREAYVAEAVEDIRLATEDLEIYAEIYGRPKHIYSIYRKMKDQKKQFNEIYDLLAIRVIVDSIKDCYAVLGAIHTRWTPMPGRFKDYIAMPKANMYQSIHTTVIGPKGNPVEVQIRTHEMHQIAEFGVAAHWAYKEGKAEKIETDELTKQVDWFHEIIELQDESYDASEFMQGVKEDIFSDKVYVFTPSGDVTELPKGSGPLDFAYSIHTEIGNKTTGAKVNGKMVQLDYVLKNGDIIEVLTSPNSFGPSRDWLKMVKTSKAKNKIKRFFKEQDREDNIIKGHDAVIKYMTEIGFTPKEFLTKNKMAEVLDKFKFQTEDDLFAAVGYGEVSAQVVCNRLTEKERREQELERQRQEAEELLNQPAKKESEKMKVRHEGGIVIQGVDNLLIRLSRCCNPVPGDEIVGYITKGRGVSIHRADCPNVQHQEELAQRLIEVEWEDTEHSRKEYAADLEIYGYDRSGLLSDVLQVISSMTKNLVGVEARPSKDKMAQIHVTVKIQNLSHLKTIVDKIKSVPDVYSVRRTNGEGHHHHHH”, the “soluble on expression in E. coli” value is given as “soluble”.

Turning to “MGSDKIHHHHHHLTNQMVYVYKDGKQVVSSQCVTGCIAKGHGTPTGVYSIFSMDKDRYLRGDGYKSWVNFFVPFNGGIGFHDASWRSTFGGNIYLYSGSHGCINMPYSEVKKLFANVSMGETVIVYGGATSVDGKEQSFTGQDAYSVTEGDASFNLGVTAQDNAKLTYVSDNEWVAKVDESGNVTPVGVGTATITVKSEATAGYRAGTKTITVTVNAKAQPQVQPQKPAQQQPQKPAQQQQPQKPAAKKDASVNVSESDVSLEINGTKKINISVSSDTGATVEVESGDASVATLDSNGNIVAKNEGQVTYKVYTKATGSYNASNVSYVTIKVSKPAEPDDSGADADRE”, the “soluble on expression in E. coli” value was “not soluble”.
